Bridge positions count the residues as written; N and C are the ends. Ends that are not written are not given here.
Experiments:
[1] = molecular target: T1, cyclo[E-LYLAYPAH-K] (synthetic construct, lactam 1-10); assay: yeast surface titration
T1 chain: ELYLAYPAHK

[2] = molecular target: T2, cyclo[E-LYLAYPAH-K] (synthetic construct, lactam 1-10); assay: resin adsorption isotherm
T2 chain: ELYLAYPAHK

B1: YAP WW domains 165-271 (protein)
chain: FEIPDDVPLPAGWEMAKTSSGQRYFLNHIDQTTTWQDPRKAMLSQMNVTAPTSPPVQQNMMNSASGPLPDGWEQAMTQDGEIYYINHKNKTTSWLDPRLDPRFAMNQ
Kd [1]: 680 nM | Kd [2]: 2640 nM

— PMC7915732 (2021)
